target: T1, human IL-17RA on cells (human PBMC; human foreskin fibroblasts) (human, UniProt Q96F46 33-866); experiment: cell-based or functional assay

| % Inhibition of IL-5 production (TSLP treated human PBMC + IL-2 + IL-25), inhibitor 10 micrograms/mL [%] | Binder |
| --- | --- |
| 86 | 4.16.1 (antibody, IgG2, V domains shown) VH: QVQLVQSGAEVKKPGASVKVSCKASGYTLTSYGISWVRQAPGQGLEWMGWISAYSGNTKYAQKFQGRVTMTTDTSTSTAYMELRSLRSDDTAVYYCARRQLALDYWGQGTLVTVSS VL: EIVMTQSPATLSVSPGERATLSCRASQSISSNLAWYQQKPGQAPRLLIYGASTRATGIPARFSDNGSGTEFTLTISSLQSEDFAVYFCQQYDTWPLTFGGGTKVEIK |
| 100 | 3.381.1 (antibody, IgG2, V domains shown) VH: QVQLVQSGAEVKKPGASVKVSCKASGYTFTRYGISWVRQAPGQGLEWMGWISAYSGNTNYAQKLQGRVTMTTDTSTSTAYMELRSLRSDDTAVYYCARRQLYFDYWGQGTLVTVSS VL: EIVMTQSPATLSVSPGERVTLSCRASQSVSSNLAWFQQKPGQAPRPLIYDASTRAAGIPARFSGSGSGTDFTLTISSLQSEDFAVYYCQQYDNWPLTFGGGTKVEIK |

target: T1, human IL-17RA on cells (human PBMC; …); experiment: cell-based or functional assay; remark: another data set of the same source

| % Inhib. of IL-5 production (TSLP treated human PBMC + IL-2 + IL-25), Expt. 2 [%] | % Inhib. of IL-5 production (TSLP treated human PBMC + IL-2 + IL-25), Expt. 3 [%] | % Inhib. of IL-5 production (TSLP treated human PBMC + IL-2 + IL-25), Expt. 1 [%] | Binder |
| --- | --- | --- | --- |
| 77 | 100 |  | 4.16.1 (antibody, IgG2, V domains shown) VH: QVQLVQSGAEVKKPGASVKVSCKASGYTLTSYGISWVRQAPGQGLEWMGWISAYSGNTKYAQKFQGRVTMTTDTSTSTAYMELRSLRSDDTAVYYCARRQLALDYWGQGTLVTVSS VL: EIVMTQSPATLSVSPGERATLSCRASQSISSNLAWYQQKPGQAPRLLIYGASTRATGIPARFSDNGSGTEFTLTISSLQSEDFAVYFCQQYDTWPLTFGGGTKVEIK |
| 82 | 74 | 69 | 3.381.1 (antibody, IgG2, V domains shown) VH: QVQLVQSGAEVKKPGASVKVSCKASGYTFTRYGISWVRQAPGQGLEWMGWISAYSGNTNYAQKLQGRVTMTTDTSTSTAYMELRSLRSDDTAVYYCARRQLYFDYWGQGTLVTVSS VL: EIVMTQSPATLSVSPGERVTLSCRASQSVSSNLAWFQQKPGQAPRPLIYDASTRAAGIPARFSGSGSGTDFTLTISSLQSEDFAVYYCQQYDNWPLTFGGGTKVEIK |
|  | 69 |  | 3.1404.1 (antibody, IgG2, V domains shown) VH: QVQLVQSGAEVKKPGASVKVSCKASGYTFTRYGISWVRQAPGQGLEWMGWISTYSGNTNYAQKLQGRVTMTTDTSTSTAYMELRSLRSDDTAVYYCARRQLYFDYWGQGTLVTVSS VL: EIVMTQSPATLSVSPGERATLSCRASQSVSSNLAWFQQKPGQAPRPLIYDASTRATGVPARFSGSGSGTDFTLTISSLQSEDFAVYYCQQYDNWPLTFGGGTKVEIK |
|  | 11 | 0 | 4.357.1 (antibody, V domains shown) VH: QVQLVQSGAEVKKPGASVKVSCKASGYTLTSYGISWVRQAPGQGLEWMGWISTYKGNTNYAQKLQGRVTMTTDTSTSTAYMELRSLRSDDTAVYYCARKQLVFDYWGQGTLVTVSS VL: EIVMTQSPATLSVSPGERATLSCRASQSISSSLAWYQQKPGQAPRLLIYGASTRATGIPARFSGSGSGTEFTLTISSLQSENFAVYYCQQYDNWPLTFGGGTKVEIK |
| 72 | 45 | 28 | 4.393.1 (antibody, V domains shown) VH: QVQLVQSGAEVKKPGASVKVSCKASGYTFTSYGISWVRQAPGQGLEWMGWISAYNGNTKYAQKLQGRVTMTTDTSTSTVYMELRSLRSDDTAVYYCARKQLVFDYWGQGTLVTVSS VL: EIVMTQSPATLSVSPGERATLSCRASQSISTSLAWYQQKPGQAPRLLIYGTSTRATGIPARFSGSGSGTEFTLTISSLQSEDFAVYFCQQYDIWPLTFGGGTKVEIK |
| 41 | 9 | 0 | 1.185.1 (antibody, V domains shown) VH: QVQLVESGGGVVQPGRSLRLSCAASGINFSSYGMHWVRQAPGKGLEWVAVIWYDGSNKHYADSVKGRFTISRDNSKNTLYLQMNSLRAEDTAVYYCARDTGVYWGQGTLVTVSS VL: not shown |
| 43 | 0 | 0 | 3.1545.1 (antibody, V domains shown) VH: EVQLVESGGGSVQPGGSLRLSCAASGFTFSSYSMNWVRQAPGKGLEWVSIISSRSSIIHYADSVKGRFTISRDNAKNSLYLQMNSLRDEDTAVYYCARPKVGGGMDVWGQGTTVTVSS VL: DIQMTQSPSSLSASVGDRVTITCRASQGISNYLAWYQQKPGKFPELLIYAASTLQSGVPSRFSGSGSGTDFTLTISSLQPEDVATYYCQKYNRAPFTFGPGTKVDIK |
| 6 | 0 | 0 | 2.46.1 (antibody, V domains shown) VH: QVQLVQSGAEVKKPGASVKVSCKASGNTFTGYGISWVRQAPGQGLEWMGWISAYNGNTNYAQNLQGRVTMTTDTSTSTAYMELRSLRSDDTAVYYCARRDYDILTGYYNGFDPWGQGTLVTVSS VL: DIQMTQSPSSLSASVGDRVTITCRASQGIRNDLGWYQQKPGKAPKRLIYAASSLQSGVPSRFSGSGSGTEFTLTISSLQPEDFATYYCLQHKSYPLTFGGGTKVEIK |
| 13 | 3 | 0 | 2.67.1 (antibody, V domains shown) VH: QVQLVQSGAEVKKPGASVKVSCKASGYTLTRYGISWVRQAPGQGLEWMGWISAYNGNTNYAQKLQGRVTMTTDTSTSTAYMELRSLRSDDTAVYYCARRDYDILTGYYNGFDPWGQGTLVTVSS VL: DIQMTQSPSSLSASVGDRVTITCRASQGIRNDLGWYQQKPGKAPKRLIYAASSLQSGVPSRFSGSGSGTEFTLTISSLQPEDFATYYCLQHKSYPLTFGGGTKVEIK |
| 79 | 0 | 0 | 2.98.1 (antibody, V domains shown) VH: QVQLVQSGAEVKKPGASVKVSCKASGYTLTRYGISWVRQAPGQGLEWMGWISAYNGNTNYAQKLQGRVTMTTDTSTSTAYMELRSLRSDDTAVYYCARRDYDILTGYYNGFDPWGQGTLVTVSS VL: DIQMTQSPSSLSASVGDRVTITCRASQGIRNDLGWYQQKPGKAPKRLIYAASSLQSGVPSRFSGSGSGTEFTLTISSLQPEDFATYYCLQHKSYPLTFGGGTKVEIK |
|  | 0 | 0 | 2.225.1 (antibody, V domains shown) VH: QVQLVQSGVEVKKPGASVKVSCKASGYTLTRYGISWVRQAPGQGLEWMGWISAYNGNTNYAQKLQGRVTMTTDTSTSTAYMELRSLRSDDTAVYYCARRDYDILTGYYNGFDPWGQGTLVTVSS VL: DIQMTQSPSSLSASVGDRVTITCRASQGIRNDLGWYQQKPGKAPKRLIYAASSLQSGVPSRFSGSGSGTEFTLTISSLQPEDFATYYCLQHKSYPLTFGGGTKVEIK |
| 16 | 28 | 0 | 2.133.1 (antibody, V domains shown) VH: QVQLQESGPGLVKPSETLSLTCTVSGGSISNYYWNWIRQSPGKGLEWIGDIYYSGSTNYNPSLKSRVTISVDTSKNQFSLKLSSVTTADTAVYYCARDGELANYYGSGSYQFYYYYGMDVWGQGTTVTVSS VL: DILMTQSPSSLSASVGDRVTITCRASQGIRNDLGWYQQKPGKAPKRLIYAASSLQSGVPSRFSGSGSGTEFTLTISSLQPEDFATYYCLQHNSNPFTFGPGTKVDIK |
|  | 0 | 0 | 2.23.1 (antibody, V domains shown) VH: QVQLVESGGGLVKPGGSLRLSCAASGFTFSDYYMSWIRQAPGKGLEWVSYISSSGSTIYYADSVKGRFTISRDNAKNSLYLQMNSLRAEDTAVYYCARDRTYYFGSGSYEGMDVWGQGTTVTVSS VL: EILMTQSPATLSVSPGERATLSCRASQSVYSNLAWYQQKPGQAPRLLISGASTRATGIPARFSGSGSGTEFTLTISSLQSEDFAVYYCQQYYNWPWTFGQGTKVEIK |

target: T2, IL-17RA.HIS (extracellular domain of human IL-17RA fused to a polyhistidine tag) (human, UniProt Q96F46 33-320); experiment: co-immunoprecipitation on Protein G beads, Western blot with anti-IL-17RA
T2 construct: extracellular domain

| binding result | Binder |
| --- | --- |
| binds | IL-17RB.Fc (extracellular domain of human IL-17RB fused to the Fc region of human IgG) (Fc fusion, UniProt Q9NRM6 18-292, looked up, not shown: a dimerising Fc or GST, extracellular domain; also called HuIL-17RB: Fc) REPTVQCGSETGPSPEWMLQHDLIPGDLRDLRVEPVTTSVATGDYSILMNVSWVLRADASIRLLKATKICVTGKSNFQSYSCVRCNYTEAFQTQTRPSGGKWTFSYIGFPVELNTVYFIGAHNIPNANMNEDGPSMSVNFTSPGCLDHIMKYKKKCVKAGSLWDPNITACKKNEETVEVNFTTTPLGNRYMALIQHSTIIGFSQVFEPHQKKQTRASVVIPVTGDSEGATVQLTPYFPTCGSDCIRHKGTVVLCPQTGVPFPLDNNKSKPGGWLP |

— US20170114140A1 (Amgen, published 2017)
